Results from US20250263466A1 (VIR BIOTECHNOLOGY, published 2025).

Columns and labels:
[1] = target: T1, MERS-CoV S protein (London1/2012) expressed on ExpiCHO cells (MERS-CoV, UniProt K9N5Q8 18-1353); experiment: flow cytometry on ExpiCHO cells transfected with MERS-CoV S
T1 sequence: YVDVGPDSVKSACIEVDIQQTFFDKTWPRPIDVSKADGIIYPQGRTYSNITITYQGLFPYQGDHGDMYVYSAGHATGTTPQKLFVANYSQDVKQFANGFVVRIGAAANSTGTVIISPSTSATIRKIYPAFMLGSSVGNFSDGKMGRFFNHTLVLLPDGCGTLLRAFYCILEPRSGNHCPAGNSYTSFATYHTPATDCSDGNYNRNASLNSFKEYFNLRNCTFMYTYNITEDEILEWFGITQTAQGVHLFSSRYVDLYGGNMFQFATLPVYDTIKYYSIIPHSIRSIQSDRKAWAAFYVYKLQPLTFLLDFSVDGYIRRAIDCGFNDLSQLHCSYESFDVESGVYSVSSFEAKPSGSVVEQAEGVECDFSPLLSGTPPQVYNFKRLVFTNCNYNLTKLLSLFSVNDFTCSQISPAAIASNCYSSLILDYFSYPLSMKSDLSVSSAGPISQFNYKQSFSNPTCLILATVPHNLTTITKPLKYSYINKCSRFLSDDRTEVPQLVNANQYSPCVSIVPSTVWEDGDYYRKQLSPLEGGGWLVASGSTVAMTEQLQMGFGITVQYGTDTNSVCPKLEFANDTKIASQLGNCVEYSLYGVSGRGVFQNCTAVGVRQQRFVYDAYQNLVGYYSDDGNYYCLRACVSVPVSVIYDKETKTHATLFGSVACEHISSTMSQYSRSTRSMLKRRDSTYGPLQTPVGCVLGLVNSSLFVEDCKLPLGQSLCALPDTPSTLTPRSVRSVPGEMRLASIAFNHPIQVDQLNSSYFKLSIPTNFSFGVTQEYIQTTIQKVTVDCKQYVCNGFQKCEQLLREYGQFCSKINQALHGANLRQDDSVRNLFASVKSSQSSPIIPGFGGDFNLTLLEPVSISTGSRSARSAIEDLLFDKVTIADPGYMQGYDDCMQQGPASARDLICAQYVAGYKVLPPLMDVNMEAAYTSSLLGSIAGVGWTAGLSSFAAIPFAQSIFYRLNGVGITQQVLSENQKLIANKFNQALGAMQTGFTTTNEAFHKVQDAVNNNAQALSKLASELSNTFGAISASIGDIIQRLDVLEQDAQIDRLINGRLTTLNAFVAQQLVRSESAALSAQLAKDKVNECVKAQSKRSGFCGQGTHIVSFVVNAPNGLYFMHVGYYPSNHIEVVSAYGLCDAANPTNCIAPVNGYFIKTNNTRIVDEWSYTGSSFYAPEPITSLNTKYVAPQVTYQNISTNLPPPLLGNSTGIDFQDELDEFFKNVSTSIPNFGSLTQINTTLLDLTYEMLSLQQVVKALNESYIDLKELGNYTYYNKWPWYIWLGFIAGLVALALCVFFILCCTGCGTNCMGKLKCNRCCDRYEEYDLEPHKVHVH

[2] = target: SARS-CoV S protein (Urbani strain) expressed on ExpiCHO cells (SARS-CoV, UniProt P59594 14-1255); experiment: flow cytometry on ExpiCHO cells transfected with SARS-CoV S
[3] = target: SARS-CoV Spike S1 Subunit Protein (strain WH20) (SARS-CoV, UniProt P59594 14-667); experiment: Octet (BLI): inhibition of SARS-CoV S1 binding to immobilized hACE2

B1: nCoV-19 mAb (antibody, V domains shown)
VH: QVKLVESGGGVVQPGRSLRLSCAASGFTFSSNAMHWVRQTPGKGLEWVALISYDERNKYYAESVKGRFTISRDNSKNTLYLQMNSLRHEDTAVYYCARDLQMRVVVVSNFDYWGQGTLVTVSS
VL: DVVMTQSPLSLPVTLGQPASISCRSSQSLVYSDGNTYLNWFQQRPGQSPRRLIYEVSNWDSGVPDRFSGSGSGTDFTLKISRVEAEDVGVYYCMQATHWPPTFGQGTKLEIK
- binding result [1]: no binding (tested: 10 µg/ml)
- binding result [2]: binds

B2: nCoV-1 mAb (antibody, V domains shown)
VH: QAQLVESGGALVQPGRSLRLSCAASGFTFRNYAMHWVRQAPATGLQWLAVITSDGRNKFYADSVKGRFTISREDSKNTLYLQMDSLRGEDTAVYYCVTQRDNSRDYFPHYFHDMDVWGQGTTVAVSS
VL: DVVLTQSPLSLPVTLGQPASISCRSSQSLVYSDGDTYLNWFQQRPGQSPRRLIYQVSNRDSGVPDRFSGSGSGTDFTLKISRVEAEDVGVYYCMQGSHWPPTFGQGTKVEIK
- binding result [1]: no binding (tested: 10 µg/ml)
- IC50 [3]: 1.13 µg/mL

B3: nCoV-10 mAb (antibody, V domains shown)
VH: QVQLVESGGGVVQPGRSLRLSCAASGFTFSNYGMHWVRQAPGKGLEWLAVISSDGRIKFYADSVKGRFTMSRDSSKNTLYLQMNSLRAEDTAVYYCAKDRFQFARSWYGDYFDYWGQGTQVTVSS
VL: AVAMTQSPLSLPVTLGQPASISCRSNQSLVYSDGNIYLNWFQQRPGQSPMRLIYRVSNRDSGVPDRFSGSGSGTDFTLKISRVEAEDVGIYYCMQGTHWPPTFGGGTKVEIK
- binding result [1]: no binding (tested: 10 µg/ml)
- IC50 [3]: 2.69 µg/mL

B4: nCoV-20 mAb (antibody, V domains shown)
VH: QVTLRESGPALVKPTQTLTLTCTFSGFSLTTTEMCVGWIRQPPGKALEWLALIDWDDDKYYSTSLRTRLTISKDTSKNQVVLTMTNMDPVDTATYYCARMFGRKRLAPTGFDPWGQGTLVTVSS
VL: DIVMTQSPLSLPVTPGEPASISCRSSQSLLHSNGKNYLDWYLQKPGQSPQLLICLGSYRASGVPDRFSGSGSGTDFTLKISRVEAEDVGVYYCMQALQTPWTFGQGTKVEIK
- binding result [1]: no binding (tested: 10 µg/ml)
- binding result [2]: binds
